Consider one substance from patent US20110129412A1.

For experiment [1], the target named is human CD20 (human) (UniProt P11836). The experiment in a line: cell-based or functional assay.
Experiment [2] has the same target. The experiment in a line: FACS titration on SB cells expressing CD20, 3 h at 4 C, nonlinear fit of geometric mean fluorescence.

Sequence of human CD20 (human) (P11836 whole entry): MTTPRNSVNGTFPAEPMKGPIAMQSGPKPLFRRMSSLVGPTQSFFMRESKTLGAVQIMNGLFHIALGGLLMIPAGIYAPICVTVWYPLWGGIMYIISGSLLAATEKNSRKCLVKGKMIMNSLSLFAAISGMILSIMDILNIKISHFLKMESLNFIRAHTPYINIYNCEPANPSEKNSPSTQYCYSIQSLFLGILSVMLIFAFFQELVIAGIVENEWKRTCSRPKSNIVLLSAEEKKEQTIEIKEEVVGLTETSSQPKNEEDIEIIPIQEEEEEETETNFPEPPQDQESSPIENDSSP

Consider “Rituxan (Rituximab), Genentech (antibody)”, for which, in the experiment with human CD20 (human) [1], the % Lysis Daudi 0.001 µg/ml ADCC came out at 33%, the % Lysis Daudi 1 µg/ml ADCC is 95%, the % Lysis Raji 0.001 µg/ml ADCC amounted to 16% and the % Lysis Raji 1 µg/ml ADCC came out at 62%. Besides, in the experiment with human CD20 (human) [1], the % Lysis Ramos 0.001 µg/ml ADCC amounted to 5%, the % Lysis Ramos 1 µg/ml ADCC was 78%, the EC50 Daudi CDC was determined as 1.56 µg/mL and the EC50 Raji CDC amounted to 0.31 µg/mL. In the experiment with human CD20 (human) [1], this substance registered an EC50 Ramos Apoptosis Alamar Blue of 0.222 µg/mL, an EC50 Ramos Apoptosis Annexin V of 2.59 µg/mL, an EC50 Ramos Apoptosis Cell Titer Glo of 0.576 µg/mL and an EC50 Ramos Apoptosis WST-1 of 0.0326 µg/mL. Also, the EC50 Ramos CDC with human CD20 (human) [1] turned out to be 0.43 µg/mL. For the same substance, the dissociation constant (Kd) with human CD20 (human) [2] came to 8.1 nM.

A word on the Kd: it is the free concentration of one partner at which half of the binding sites on the other are occupied at equilibrium, for simple one-to-one binding. A lower Kd goes with higher affinity.
